A word on the Kd: it is the equilibrium constant for the complex coming apart.

The target in the experiment is T1, extracellular domain of mouse PIR-B (Domains 1 to 6), biotinylated (mouse, UniProt P97484 25-642, biotinylated with BirA (site not stated)).
T1 construct: The full-length protein is cited as NCBI NM_011095; also called Paired-Immunoglobulin-like Receptor B; PIR-B (extracellular domain)
T1 sequence: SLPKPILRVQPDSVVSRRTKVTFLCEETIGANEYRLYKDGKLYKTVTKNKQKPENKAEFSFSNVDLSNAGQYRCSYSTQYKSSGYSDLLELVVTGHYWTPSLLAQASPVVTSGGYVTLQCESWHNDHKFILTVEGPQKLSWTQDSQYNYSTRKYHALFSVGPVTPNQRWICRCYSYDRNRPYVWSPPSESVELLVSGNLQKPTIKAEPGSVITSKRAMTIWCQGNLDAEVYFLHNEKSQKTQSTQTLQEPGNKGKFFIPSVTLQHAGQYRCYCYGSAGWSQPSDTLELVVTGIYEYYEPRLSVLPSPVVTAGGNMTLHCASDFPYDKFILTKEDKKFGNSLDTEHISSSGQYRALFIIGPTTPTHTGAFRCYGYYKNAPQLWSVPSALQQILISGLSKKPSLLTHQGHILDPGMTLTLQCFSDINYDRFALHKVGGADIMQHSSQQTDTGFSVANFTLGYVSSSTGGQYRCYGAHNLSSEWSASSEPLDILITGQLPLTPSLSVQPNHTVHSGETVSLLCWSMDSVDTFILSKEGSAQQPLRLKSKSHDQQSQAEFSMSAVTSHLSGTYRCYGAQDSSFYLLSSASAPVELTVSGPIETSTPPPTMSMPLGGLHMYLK
Kind of experiment: SPR (BIAcore 3000), biotinylated PIR-B extracellular domain on streptavidin chip, HLA-G2 0.10-1.56 µM as analyte, 1:1 binding model. As for the experimental part:
Using BIAcore® 3000 (GE healthcare BIAcore), the affinity between HLA-G2 and the extracellular domain of PIR-B prepared as described above was determined in a surface plasmon resonance experiment. Streptavidin was first covalently fixed on a research grade sensor chip, and then the biotinylated extracellular domain of PIR-B or BSA as a negative control was fixed via the streptavidin. Then, a solution of HLA-G [α1-3] dimer in HBS-EP running buffer (10 mM HEPES pH7.5, 150 mM sodium chloride, 3.4 mM EDTA, 0.005% Surfactant P20) was run at 5 μL/min. Kinetics analysis of binding response was performed at various concentrations by subtracting the response measured in a control flow cell from the response measured in a sample flow cell. BIAevaluation version 4.1.1 (GE Healthcare) was used in the analysis.
(In general: SPR reads the build-up and loss of mass on a sensor chip optically.)

B1: HLA-G2 (HLA-G [α1-3] dimer; complex of the α1 and α3 domains of the HLA-G molecule) (ligand)
chain: GSHSMRYFSAAVSRPGRGEPRFIAMGYVDDTQFVRFDSDSACPRMEPRAPWVEQEGPEYWEEETRNTKAHAQTDRMNLQTLRGYYNQSEANPPKTHVTHHPVFDYEATLRCWALGFYPAEIILTWQRDGEDQTQDVELVETRPAGDGTFQKWAAVVVPSGEEQRYTCHVQHEGLPEPLMLRW
notes: It was run in SPR as 'HLA-G [α1-3] dimer'; also called α1-3 complex
As to B1, binding was put at a Kd of 142 nM.

The record behind these values is patent US20210115137A1 (NATIONAL UNIVERSITY CORPORATION HOKKAIDO UNIVERSITY, published 2021).
